Entries after “also recorded” stand apart in the source; their conditions may differ.

Data set [1] is described as follows: Thermal shift assay, protein alone. The data set is classed as physicochemical. Particulars: 5 μM DIM2 or 10 µM HP1, pH 7.5, 1× GloMelt Dye, 4 to 95 °C, triplicate. Here is the method: Thermal shift assays were performed for WT and R1104A DIM2 proteins using a Bio-Rad CFX Connect Real-Time PCR Detection System. Each 20-µL reaction mixture contained 5 μM WT or R1104A-mutated DIM2, and/or 10 µM HP1 protein, dissolved in buffer containing 20 mM Tris-HCl (pH 7.5), 100 mM NaCl, 5% glycerol, 5 mM DTT, and 1× GloMelt Dye (Biotium). The sample plates were subject to heat from 4 to 95 °C with a stepwise increment of 5 °C. Fluorescence intensity was recorded with the excitation and emission wavelength of 470 nm and 510 nm, respectively. The experiments were carried out in triplicate.

The next data set deals with HP1. Kind of data set: Size-exclusion chromatography of DIM2-HP1 complex. The data set is classed as binding, Neurospora Crassa. Particulars: 1.0 µM DIM2 and/or 2.5 µM HP1, Superdex 200 increase 10/300 GL, pH 7.5. Here is the method:
For size-exclusion chromatography analysis, 400 µL of the sample mixture containing 1.0 µM DIM2 and/or 2.5 µM HP1 was loaded onto Superdex 200 increase 10/300 GL column (GE Healthcare) and eluted at a flow rate of 0.5 mL/min, in the buffer containing 20 mM Tris-HCl (pH 7.5), 100 mM NaCl, 5% glycerol, and 5 mM DTT. The proteins in each fraction were then visualized by SDS-PAGE.
In general terms: SEC sorts molecules by how far they enter the pores of the column.

The test system of data set [2] is (CTA)12/(TAG)12 36-mer DNA duplex. Kind of data set: In vitro DNA methylation assay of DIM2 (WT or mutant). The format is biochemical. Set-up: DNA methylation activity: unit not given here. Particulars: Fig. 3h, in the presence of HP1 (2 µM) and H3_1-24K9me3 peptide (1.0 µM), 1.0 µM DIM2, 30 °C, 30 min, pH 8.0.

B1: DIM2R1104A: DIM2 with TRD mutation R1104A (protein)
chain: MDSPDRSHGGMFIDVPAETMGFQEDYLDMFASVLSQGLAKEGDYAHHQPLPAGKEECLEPIAVATTITPSPDDPQLQLQLELEQQFQTESGLNGVDPAPAPESEDEADLPDGFSDESPDDDFVVQRSKHITVDLPVSTLINPRSTFQRIDENDNLVPPPQSTPERVAVEDLLKAAKAAGKNKEDYIEFELHDFNFYVNYAYHPQEMRPIQLVATKVLHDKYYFDGVLKYGNTKHYVTGMQVLELPVGNYGASLHSVKGQIWVRSKHNAKKEIYYLLKKPAFEYQRYYQPFLWIADLGKHVVDYCTRMVERKREVTLGCFKSDFIQWASKAHGKSKAFQNWRAQHPSDDFRTSVAANIGYIWKEINGVAGAKRAAGDQLFRELMIVKPGQYFRQEVPPGPVVTEGDRTVAATIVTPYIKECFGHMILGKVLRLAGEDAEKEKEVKLAKRLKIENKNATKADTKDDMKNDTATESLPTPLRSLPVQVLEATPIESDIVSIVSSDLPPSENNPPPLTNGSVKPKAKANPKPKPSTQPLHAAHVKYLSQELVNKIKVGDVISTPRDDSSNTDTKWKPTDTDDHRWFGLVQRVHTAKTKSSGRGLNSKSFDVIWFYRPEDTPCCAMKYKWRNELFLSNHCTCQEGHHARVKGNEVLAVHPVDWFGTPESNKGEFFVRQLYESEQRRWITLQKDHLTCYHNQPPKPPTAPYKPGDTVLATLSPSDKFSDPYEVVEYFTQGEKETAFVRLRKLLRRRKVDRQDAPANELVYTEDLVDVRAERIVGKCIMRCFRPDERVPSPYDRGGTGNMFFITHRQDHGRCVPLDTLPPTLRQGFNPLGNLGKPKLRGMDLYCGGGNFGRGLEEGGVVEMRWANDIWDKAIHTYMANTPDPNKTNPFLGSVDDLLRLALEGKFSDNVPRPGEVDFIAAGSPCPGFSLLTQDKKVLNQVKNQSLVASFASFVDFYRPKYGVLENVSGIVQTFVNRKQDVLSQLFCALVGMGYQAQLILGDAWAHGAPQSRERVFLYFAAPGLPLPDPPLPSHSHYRVKNRNIGFLCNGESYVQRSFIPTAFKFVSAGEGTADLPKIGDGKPDACVRFPDHRLASGITPYIAAQYACIPTHPYGMNFIKAWNNGNGVMSKSDRDLFPSEGKTRTSDASVGWKRLNPKTLFPTVTTTSNPSDARMGPGLHWDEDRPYTVQEMRRAQGYLDEEVLVGRTTDQWKLVGNSVSRHMALAIGLKFREAWLGTLYD
modifications: left off: His6, N-terminal, cleaved | MBP, N-terminal, cleaved
notes: DIM2 with TRD mutation R1104A
On to B1, for which the “melting temperature (Tm)” value in data set [1] was 39.5 °C. The “DIM2-HP1 complex formation (in words)” value in the data set with HP1 is “did not affect the assembly of the DIM2-HP1 complex appreciably; also recorded: barely impacts the association of the DIM2-HP1 complex”. Further, the DNA methylation activity in data set [2] (replicate 1) worked out at 3.1; in data set [2] (replicate 2), 2.552; in data set [2] (replicate 3), 2.87.
